As a reminder, the Kd is the free concentration of one partner at which half of the binding sites on the other are occupied at equilibrium, for simple one-to-one binding. Read a high Kd as weaker binding.

The assay has as its target T1, SARS-CoV-2 RBD protein L452R mutant (SARS-CoV-2, UniProt P0DTC2 319-541).
T1 construct: domain: RBD
The assay can be described thus: SPR, Biacore 8K, RBD on CM5 chip, IgG injected, 1:1 model. On the technique in general: Surface plasmon resonance follows binding to a sensor surface in real time, without labels.

B1: VacW-105 (antibody, V domains shown)
VH: QVQLVQSGAEVKKPGSSVKVSCKASGGTFRSYTISWVRQAPGQGLEWMGRILPILGIANYAQKFQGRVTITADKSTSTAYMELSSLRSEDTAVYYCARVTGAPVESAAWFDPWGQGTLVTVSS
VL: not shown
As for B1, binding was put at a Kd of 3.69 nM.

B2: VacW-138 (antibody, V domains shown)
VH: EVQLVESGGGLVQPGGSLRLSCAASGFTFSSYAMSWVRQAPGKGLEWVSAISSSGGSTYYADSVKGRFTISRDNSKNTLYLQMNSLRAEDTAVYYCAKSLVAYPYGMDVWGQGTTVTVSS
VL: AIQLTQSPFSLSASVGDRVTITCRASQGISSALAWYQQKPGKAPKLLIYDASSLESGVPSRFSGSGSGTDFTLTISSLQPEDFATYFCQQVDTYQFTFGPGTKVDIK
Molecule B2 displayed a dissociation constant Kd of 1.96 nM.

B3: VacW-209 (antibody, V domains shown)
VH: QVQLVESGGGVVQPGRSLRLSCAASGFTFSSIAMHWVRQAPGKGLEWVAVMSFDGSIKYYGDSVKGRFTISRDNSKSTLYLQMNSLRAEDTAVYYCARGVQGYYDRSGYYNLDYNYGMDVWGQGTTVTVSS
VL: QSVLTQPPSVSGAPGQRVTISCTGSSSNIGAGYDVHWYQQLPGTAPKLLIYGNSNRPSGVPDRFSGSKSGTSASLAITGLQAEDEADYYCQSYDSSLSGWVFGGGTKLTVL
On to B3, for which the Kd is 0.0237 nM.

B4: VacW-201 (antibody, V domains shown)
VH: EVQLVESGGGLVQPGGSLRLSCAASGFTFSSYWMNWVRQAPGKGLEWVANIKQDGSEKYYVDSVKGRFTISRDNAKNSLYLQMNSLRAEDTAVYYCARMEYPYGGVDYWGQGTLVTVSS
VL: NFMLTQPHSVSESPGKTVTISCTGSSGSIASNYVQWYQQRPGSAPTTVIYEDNQRPSGVPDRFSGSIDSSSNSASLTISGLKTEDEADYYCQSYDSSNRNWVFGGGTKLTVL
B4 showed a dissociation constant (Kd) of 1.57 nM.

B5: VacW-215 (antibody, V domains shown)
VH: EVQLVESGGGLIQPGGSLRLSCAASGFTVSSNYMSWVRQAPGKGLEWVSVIYSGGSTYYADSVKGRFTISRDNSKNTLYLQMNSLRAEDTAVYYCARSTWLRGGFDYWGQGTLVTVSS
VL: NFMLTQPHSVSESPGKTVTISCTGSSGSIASNYVQWYQQRPGSAPTTVIYEDNQRPSGVPDRFSGSIDSSSNSASLTISGLKTEDEADYYCQSYDSSNHFYVFGTGTKVTVL
B5 had a Kd of 0.714 nM.

B6: VacW-212 (antibody, V domains shown)
VH: EVQLVESGGGLVQPGGSLRLSCAASGFTFSSYWMNWVRQAPGKGLEWVANIKQDESEKYYVDSVKGRFTISRDNAKNSLFLQMNSLRVEDTAVYYCARMEYPYGGIDYWGQGTLVTVSA
VL: NFMLTQPHSVSESPGKTVTISCTGSSGSIASNYVQWYQQRPGSAPTTVIYEDNQRPSGVPDRFSGSIDSSSNSASLTISGLKTEDEADYYCQSYDSSNRNWVFGGGTKLTVL
Turning to B6, the affinity, expressed as Kd, was 1.2 nM.

The record behind these values is patent CN113912709A (SHENZHEN NATIONAL CLINICAL RES CENTER FOR INFECTIOUS …, dated 2022).
